# Measured values taken from the DeepSol protein solubility set.
# Experiment: soluble on expression in E. coli; label from the status in PepcDB or PDB records
row,Sequence,soluble on expression in E. coli
1,MGSDKIHHHHHHMTVSKTKAKLVDVARQLFAKMGVENTTMNDIALASKKGRRTLYTYFKSKDEIYLAVVESELDILSDMMKRVADKDISPDKKIIEMIYTRLDAVKEVVYRNGTLRANFFRDIWRVEKVRKRFDAKEMQLFKSVLKEGQDKGVFHVDDVEMTAALVHYCVKGIEVPYIRGHIGANLDMETRKRYVANIVFGALHRTEINQ,not soluble
2,MGSDKIHHHHHHMTVTILHEANSIDTDYVKRARLISDKFLELIILPTEQCNFRCTYCYEDFSIGRMQPETIAGIKAILDKRCPNLSYLNLAWFGGEPLVAKNIVLDISEYALSLVSKYPHLHYSSNMTTNGYLLDLNTASALANVGVTKYQISLDGPREIHNQSRIRADGKSTFERIWTNLLAIRDSSLPIYINLRLHFTIDTVKLIDPLLEDIKREFLPDSRFSVYFKSIERLGGTNDASIKIYSESEKNTAIKTLEAKLFGEKLQSPQNATLPDDYVCYASRPNSLVIRANGSVGKCTVALSDERNNIGTLRTDGRLDLIPGRFAPWVRGIQTLDPDVLGCPLVSLPTSDEIATNLQTKALAV,not soluble
3,MGSDKIHHHHHHMTVVEPNSDQKLDTAVATVLHEISSFQSFAVERDLEDVIERISKVFRISDIDAFRYYINKSISGLGKIYPLFNLEEVKEIDVNGYDEPVIVKLSDDNYYTTNIKLLANEVDSIAIRLAQLMGKKISTSDPLARGTLNNREVSITFGTEISPKGSSIRIARNDSGYDLKKFVESNGFSLESISYLKIAIENSKSIVIIGPHTELKYSALLFLMDLVDKEKKITYIGEKIPSRSPGNYIFMKTKEKSIFSSQIDRVSLINTAMRQRPDYIVIDTIEVVDLPSVIQAITTGHPTFTSIDIDSVSALVSAFSDSALDLGRDMVSVIDIVIEISESSDRISSIYEFDRFEHNDVLYDLVFSIDKTTEKLRYNGFSPMFRSMSNAMGKDDFHRYLENVRKITSELIENGLS,not soluble
4,MGSDKIHHHHHHMTWQVERIANEHLTLEVLPQIGASVLNLRAASGRPVLRPVNPAAVQTSSQCASFTLLPYSNRIRDARFSFQGREVLLRPTTKDGLAQHGDVRNRPWQVTRVADTHLRGDFDSRAFNDMNWPWAFTARVEYLLHGPHLDTSVTLTNVDTDEMPAGMGLHPYFTRRHGGRDPFLSFGAALTYDTDERQLPTGGPRTLHPEEDYQMPSSIGDRQLDRVYTAWDGRARLDWGERALTLTADAVYSHLVVFTAPDGSLALEPVTHATDAFNLAARGVSGTDMRTLLPGQSLAGTVRITLEGAW,not soluble
5,MGSDKIHHHHHHMTYARKPVADAGIGVGIADDPASLSVLHKPGCAAAIWRRHIPSQAKTWLEGLDPSQLPTGRQMVRPDGVRHAVRDFCKRADTPLGDDLDWLQNDMSMLAEMFAQVMSARVLRLRLDAISTNACSRFHIDAVTARLVCTYRGSGTQYGISTDGRAPRRVFQVATGAPILLRGTLWPEDPPSGVLHRSPPIAGTGETRLVMVLDPIFDPDNGP,not soluble
6,MGSDKIHHHHHHMVAIKNFSIKIKDKEPVFTLGEKLTQEQLDFFETHGYIHFKNFLNPETVPAVIKALEDVQEQWIAENREKVNGVPIKYGVDLDGKKIVQRFAFASLFSNVLHELLKDPRLKALYPLLQAKDERIGEFEKDGLVVNHYINSDASSFTKMGWHTDCLRDVFYGKKIMPMLNVGIHLDNYDPKNGGLRIIPGTHKQDLLNLLFRKKYYVSHKPDPDEIGFNITAGDLTVHDGRSWHRVERSPITGEASRRRVMYIPFIGGEYQPKDENSSTQLYQRLSKFVR,not soluble
7,MGSDKIHHHHHHMVDSLKKPGFEEIRPGVKVPAKETLLTPRFYTTDFDEMARMDISVNEDELLAILEEFRTDYNRHHFVRDAEFEKSWDHIDGDTRRLFVEFLERSCTAEFSGFLLYKELGRRLKDKSPVLAECFNLMSRDEARHAGFLNKAMSDFNLSLDLGFLTKSRNYTFFKPKFIFYATYLSEKIGYWRYITIYRHLEAHPEDRIYPIFRFFENWCQDENRHGDFFDAIMKSQPQMLNDWKAKLWSRFFLLSVFATMYLNDIQRKDFYASIGLDARDYDIYVIKKTNETAGRVFPVILDVDSPEFYERLDICVENSEKLSAIASSNTPKFLQFFQKLPVLASTGWQLLRLYLMKPIDAVSAQGAAR,not soluble
8,MGSDKIHHHHHHMVKVSIICTNYNKGSWIGEAIDSFLKQETSFPYEIIIVDDASTDHSVHIIKTYQKQYPDLIRAFFNQENQGITKTWSDICKKARGQYIARCDGDDYWIDPFKLQKQIDLLETSPESKWSNTDFDMVDSKGNIIHKDVLKNNIIPFMDSYEKMLALKGMTMASTWLVETKLMLEINDRINKDAVDDTFNIQLELFKKTKLAFLRDSTTVYRMDAESDSRSKDSEKLAQRFDRLLETQLEYIEKYPDSDYKKVLEYLLPKHNDFEKVLAQDGKNVWDNQQITIYLAKGDDQEFSEENCFQFPLQHSGNIQLTFPENIRKIRIDLSEIPSYYRQVSLVNTTVNTELLPTWTNAKVFGYSYYFIAPDPQMIYDLTAQEGQDFKLTYEWFNVDRPSQPDFLANHLVKELDQKKVELKMLSPYKYQYQKAVAERDLYLEQLNEMVVRYNSVTHSRRWTIPTKIINLFRRKK,not soluble
9,MGSDKIHHHHHHMVLGGPMSLNRYFTGGLLCLLGCNPANAQTATIVLSATLLPACEAGSVGSGGAITFGTLDFGQYASLNNAISATSQQGAGSIRVRCVSGQTYAITLDGGLYGSVATRRMANIANTALTLTYNLYSDRPGGIVWDNTTGVAATGNGNDQWYPIYGLVPAQTTPVAGTYRDTVNVTISW,not soluble
10,MGSDKIHHHHHHMVNKNLYTLLVCLLLAGCDLIDYHPYDVRISGETDVNAHNIEQIEAKCKGKTTIRFITMGDSQRWYDETEDFVKEVNKRDDIDFVIHGGDMSDFGLTKEFLWQRDIMNGLKVPYVVLIGNHDCLGTGAETYQAVFGPTNFSFIAGNVKFVCLNTNALEYDYSEPIPNFGFMEQELTDRADEFEKTVVSMHAHPFADVFNDNVAKPFQYYITQYPGLQFCTAAHNHGFDDRILFDDDVHYIVSDCMKSRSYLVFTITPEKYEYELVEY,not soluble
11,MGSDKIHHHHHHMVPARHCHVAVFDQAIVALDIRRSRYFLYDAACARDFADHYLDFKPIDAPRALKPLIADRILVAESPAAARSRIADYRGWSFDAFDSGIWGSRVLGKRDAARFEWLPFWRIVRSAASLKMRGFHALAALDQLDARGAPARGDDASHTVERLLRASIWSPFRITCVQMSLALATHLRRQNVPAQLVIGVRPMPFVAHAWVEVDGRVCGDEPDLKKSYGEIYRTPRCDASAAPFGLAA,not soluble
12,MGSDKIHHHHHHMVPHLITALNGPLLELEKKILDATPSIERWFRLEWQEHTPPFYCSVDLRNAGFKLAPVDTNLFPGGFNNLAPEMLPLAVQAAMAAIEKICPDAKNLLLIPERHTRNMFYLQNVARLSLIMRQAGLNVRLGSLSEEITEPTPIELPDGQTLVVEPLARLGTKDRRLGLKDFDPCSILLNNDLSAGIPPILENINEQYLLPPLHAGWSTRRKSSHFAAYDEVAKKFAKLIDIDQWMVNPYFARCSGVNFHERIGEEELADSVEAVLKKIAKKYREYGIKETPYVVVKADAGTYGMGIMTVRDPSEVKGLNRKERNKMSVVKEGLEVSDVIIQEGVHTFEKVNEAVAEPVVYMIDRYVVGGFYRVHTGRGNDENLNAPGMHFVPLAFAPNGIPDSHAKPGAAVPNRFYMYGVVARLALLAASIELEKTDPNPIL,not soluble
13,MGSDKIHHHHHHMVQEIAQEIIRSARKKGTQDIYFVPKLDAYELHMRVGDERCKIGSYDFEKFAAVISHFKFVAGMNVGEKRRSQLGSCDYAYDHKIASLRLSTVGDYRGHESLVIRLLHDEEQDLHFWFQDIEELGKQYRQRGLYLFAGPVGSGKTTLMHELSKSLFKGQQVMSIEDPVEIKQDDMLQLQLNEAIGLTYENLIKLSLRHRPDLLIIGEIRDSETARAVVRASLTGATVFSTIHAKSIRGVYERLLELGVSEEELAVVLQGVCYQRLIGGGGIVDFASRDYQEHQAAKWNEQIDQLLKDGHITSLQAETEKISYS,not soluble
14,MGSDKIHHHHHHMVSMTKLVELKNSEASAVVLPRHGAGLASFDFLWRGSRLPAFRPLITEPQHEHDLALYLLAPFSNRIGGGGFAWNGRRHDLRPNVEGEPCPLHGDAWQQHWTVMDQGRTHVTLQLLSRSIPPFAYDAEITWTLDGPSLSGALTLIHRGEDPMPYGGGFHPWLVRDSDTQLHARADGWWSEDSLHLPKRWHALVDNDSSGFGAPRSLPSNFFNTVYTGWHGRADIWWPGRGLALQIEAQAPLNRYIVYSPGAEADFFCFEPVSHDVNAHNAPSPLKHGLVELAEGESLHLSARFTATLR,not soluble
15,MGSDKIHHHHHHMVSTIGIVSLSSGIIGEDFVKHEVDLGIQRLKDLGLNPIFLPHSLKGLDFIKDHPEARAEDLIHAFSDDSIDMILCAIGGDDTYRLLPYLFENDQLQKVIKQKIFLGFSDTTMNHLMLHKLGIKTFYGQSFLADICELDKEMLAYSLHYFKELIETGRISEIRPSDVWYEERTDFSPTALGTPRVSHTNTGFDLLQGSAQFEGKILGGCLESLYDIFDNSRYADSTELCQKYKLFPDLSDWEGKILLLETSEEKPKPEDFKKMLLTLKDTGIFAVINGLLVGKPMDETFHDDYKEALLDIIDSNIPIVYNLNVGHATPRAIVPFGVHAHVDAQEQVILFDYNK,not soluble
16,MGSDKIHHHHHHMWDWIGKLDELRRSNQLAVLVTVTKSSGSTPRKHGAKMIVLPDGTFYGTVGGGTPEYYALEDARACFETMQSTTSSVPLKQRGEFPACGGTMEFYMEVINDNPVLHLFGAGHIGQSLCQILDGTPFRIHLIDEREEWINAPNLPGSVIRHQRHYSDFIEKAIWCDKRTFVAIQTFSGTLDQQVLEEVLPNPTRYVGMIGSKAKWAKVRSNLEEKGLDLSAVRCPIGHDNGGNSPREIAISIASQLLSTYYGRE,not soluble
17,MGSDKIHHHHHHMWDYDRLFEIIEELVMHHSPSGAEAEINQLLMQRFAALGVEVWCDRADNIIAKIPGKNPDRAMSNDKPLLYERLRQRAYAITAHKDEIGAIVKSLGDEGRVEVRKLGGSFPWVYGEGVVDLLGDRETISGILSFGSRHVSHESPQKVQQEDTTVKWENAWIETKRTTDELEAAGVRPGTRMVIGKHRKHPIRLKDHIASYTLDNKASVAILLALAENLKQPVVDVYLVASAKEEVGAIGALFFTQNQPLDALIALEVCPLSEEYPIKDGESPILLSQDAYGIYDEGLNGQVRQSAKQLDIPVQLTILSQFGSDASIAMKFGHVARAACLAFPTQNTHGYEIAHLGAIANCIDLLKAFCETEF,not soluble
18,MGSDKIHHHHHHMWGPPWMPDQDGNMTRESGYFQCTNRNKYSVAVDITTPEGQALIYEIAKTADVVIENYKTGSLAKYGLDYASLSELNPNIVYCSITGFGQDGPRAEEPGYDFIIQGMSGLMSITGEPDDVAGGGAQKVGVAVVDIQTGLYSTIAIQAALIARSHTGRGQYIDMSLLDVQVAALANQGMNYLASGKAPQRMGNQHPSIVPYQTFKAKDKEFIIACGNDKQFKDLCIAIGYPELLENEKFVRNQDRVKYRNELIPLLSEHFLRKTAKEWVDMIHALKVPVGVINSIEDALAEPQIVYRNLVVNIPHRLNENFQTIGSPIKLSDTPVEYHHAPPELGEHTAQILSRFKTAEELAALKEKGIIDGKIA,not soluble
19,MGSDKIHHHHHHMWSHQSWQDSVYGHQTKATERLAHYAHIFNSVEGNTSFYATPAPQTVLNWHSATPDNFRFTFKLPQRITHQKQLQDCNQDLRDFFHIMAPLIEKTGIWKIQLPAHFGPEQLPVLARFLDHVPQGLTYGVEVRHFAFFAKGDAERTLNRLLIDKKVNRIIMDSRPVFALPPFNETIIDAHKKKPRVPVHPIATANNPVVRFIGQADGTLALLTQLGTTALPKDNDAFFTHWLKQLTLWLNEGREPYLFIHTPDNQTAPELAARLYRKLQLHIAEHIQLADIKLLEKKAEEKSAQMGLDW,not soluble
